Reference: patent publication US20220402979A1 (AXON NEUROSCIENCE, published 2022)

Assays:
[1] = biological target: T1, Human Tau2N4R; assay: SPR; literature table, Jadhav et al. 2019; AVIDITY 'nd.'
T1 construct: target in SPR of the literature rows

[2] = biological target: T2, recombinant human mis-disordered tau protein (tau151-391/4R) (human, UniProt P10636 468-708); assay: SPR, target 'Pathological Tau151-391_4R'; literature table, Jadhav et al. 2019; AVIDITY 'nd.'
T2 construct: No tags are stated; also called pathological tau
T2 sequence (P10636 468-708): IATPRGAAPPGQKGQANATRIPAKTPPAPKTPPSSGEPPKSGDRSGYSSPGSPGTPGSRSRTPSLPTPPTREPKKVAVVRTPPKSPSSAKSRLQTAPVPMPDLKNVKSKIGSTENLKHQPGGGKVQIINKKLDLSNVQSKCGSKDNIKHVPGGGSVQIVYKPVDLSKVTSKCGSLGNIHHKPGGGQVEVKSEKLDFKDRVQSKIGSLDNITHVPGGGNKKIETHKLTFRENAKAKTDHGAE

T1 sequence (single chain, as listed by the source limits assumed): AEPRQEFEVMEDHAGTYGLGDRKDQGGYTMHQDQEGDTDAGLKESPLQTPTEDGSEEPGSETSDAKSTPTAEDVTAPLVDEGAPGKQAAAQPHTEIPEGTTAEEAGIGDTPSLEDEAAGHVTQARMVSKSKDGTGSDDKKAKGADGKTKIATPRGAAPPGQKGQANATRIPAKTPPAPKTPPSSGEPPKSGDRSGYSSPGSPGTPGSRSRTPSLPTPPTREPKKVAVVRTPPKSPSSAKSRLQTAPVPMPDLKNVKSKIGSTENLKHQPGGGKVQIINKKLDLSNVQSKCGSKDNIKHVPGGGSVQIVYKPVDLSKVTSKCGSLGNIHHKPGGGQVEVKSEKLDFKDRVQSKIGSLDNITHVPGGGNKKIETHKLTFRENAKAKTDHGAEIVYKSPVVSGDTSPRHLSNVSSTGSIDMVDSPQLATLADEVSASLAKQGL

- Kd [1]: 91 nM
- Kd [2]: 14 nM
B1: DC8E8 (antibody, V domains shown)
VH: QVQLQQSGPELVKPGTSVKMPCKASGYIFTDYVISWVKQRTGQGLEWIGEIFPRSGSTYYNEKFKGKATLTADKSSNTAYMQLSSVTSEDSAVYFCARDYYGTSFAMDYWGQGTSVTVSS
VL: DIVMSQSPSSLAVSAGEKVTMSCKSSQSLLNSRTRKNYLAWYQQKPGQSPKLLIYWASTRESGVPDRFTGSGSGTDFTLTISSVQAEDLAVYYCKQSFYLRTFGGGTKLDIK
